The text below walks through data of doi:10.1101/839423, “Mechanism of the secretion of the lanthipeptide nisin” (bioRxiv, 2019).

B2: 10HNisT, deca-histidine tagged ABC transporter NisT (natural protein, Lactococcus lactis, UniProt Q03203 1-600, looked up)
chain: MDEVKEFTSKQFFYTLLTLPSTLKLIFQLEKRYAIYLIVLNAITAFVPLASLFIYQDLINSVLGSGRHLINIIIIYFIVQVITTVLGQLESYVSGKFDMRLSYSINMRLMRTTSSLELSDYEQADMYNIIEKVTQDSTYKPFQLFNAIIVELSSFISLLSSLFFIGTWNIGVAILLLIVPVLSLVLFLRVGQLEFLIQWQRASSERETWYIVYLLTHDFSFKEIKLNNISNYFIHKFGKLKKGFINQDLAIARKKTYFNIFLDFILNLINILTIFAMILSVRAGKLLIGNLVSLIQAISKINTYSQTMIQNIYIIYNTSLFMEQLFEFLKRESVVHKKIEDTEICNQHIGTVKVINLSYVYPNSNAFALKNINLSFEKGELTAIVGKNGSGKSTLVKIISGLYQPTMGIIQYDKMRSSLMPEEFYQKNISVLFQDFVKYELTIRENIGLSDLSSQWEDEKIIKVLDNLGLDFLKTNNQYVLDTQLGNWFQEGHQLSGGQWQKIALARTFFKKASIYILDEPSAALDPVAEKEIFDYFVALSENNISIFISHSLNAARKANKIVVMKDGQVEDVGSHDVLLRRCQYYQELYYSEQYEDNDE
notes: the nisT gene was amplified from genomic DNA of L. lactis NZ97000; 10HNisT is printed as 72.5 kDa (72.6 kDa in the methods), NisT as about 69 kDa; In the pull-down the detergent was CYMAL5; also called WT; source: L. lactis NZ9000 (pNZ-SV10HnisT), membranes solubilised with Fos-choline-16, purified (IMAC, SEC)

The target in test [1] is B2. As to the kind of experiment: pull-down; as a1, with NisB and NisC together (1:1), pre-incubated 15 min on ice with mNisA (20x molar excess to NisT). The conditions noted are these: both partners purified.
The target of a further test is T1, NisB, nisin dehydratase (Lactococcus lactis, UniProt P20103 1-993).
T1 construct: Nisin biosynthesis protein NisB (dehydratase), Lactococcus lactis; printed as about 117 kDa; source: expressed and purified as described previously (Mavaro 2011; Abts 2013; Reiners 2017)
T1 sequence (looked up): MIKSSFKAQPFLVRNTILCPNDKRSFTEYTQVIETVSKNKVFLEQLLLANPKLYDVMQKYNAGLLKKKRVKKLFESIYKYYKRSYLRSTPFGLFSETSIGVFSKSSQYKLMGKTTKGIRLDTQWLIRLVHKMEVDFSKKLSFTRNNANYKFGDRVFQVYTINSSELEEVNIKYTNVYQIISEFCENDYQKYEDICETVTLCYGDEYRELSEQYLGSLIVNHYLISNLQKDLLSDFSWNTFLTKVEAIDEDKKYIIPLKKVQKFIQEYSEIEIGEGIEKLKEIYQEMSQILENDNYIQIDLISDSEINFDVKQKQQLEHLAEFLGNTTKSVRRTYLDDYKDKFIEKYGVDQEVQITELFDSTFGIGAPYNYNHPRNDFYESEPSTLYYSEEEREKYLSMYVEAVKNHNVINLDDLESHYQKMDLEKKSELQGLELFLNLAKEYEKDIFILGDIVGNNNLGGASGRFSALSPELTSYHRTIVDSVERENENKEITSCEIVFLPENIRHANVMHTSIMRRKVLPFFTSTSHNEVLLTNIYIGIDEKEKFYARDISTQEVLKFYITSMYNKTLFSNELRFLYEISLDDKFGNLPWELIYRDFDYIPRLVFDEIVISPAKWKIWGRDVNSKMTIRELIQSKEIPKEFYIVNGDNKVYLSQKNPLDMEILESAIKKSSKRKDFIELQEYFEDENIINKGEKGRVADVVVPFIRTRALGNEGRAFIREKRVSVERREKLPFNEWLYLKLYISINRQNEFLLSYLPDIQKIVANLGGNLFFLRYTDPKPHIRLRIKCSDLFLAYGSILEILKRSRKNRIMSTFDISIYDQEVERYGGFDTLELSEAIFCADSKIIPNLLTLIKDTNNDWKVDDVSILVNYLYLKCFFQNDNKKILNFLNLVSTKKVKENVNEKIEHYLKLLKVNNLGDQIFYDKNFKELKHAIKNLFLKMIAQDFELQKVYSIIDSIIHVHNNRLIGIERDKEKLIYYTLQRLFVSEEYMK
As to the kind of experiment: pull-down; about 15 ug 10HNisT immobilised on Ni-NTA magnetic beads; 10 uM NisB, NisC or both, no substrate; 1 h at 30 C; 25 mM Tris-HCl pH 7.5, 50 mM KCl, 0.4% CYMAL5, 400 mM glutamate, 5 mM MgATP; six washes, elution with 50 mM EDTA, Western blot. The conditions noted are these: both partners purified.

B1: NisC, nisin cyclase (enzyme, Lactococcus lactis, UniProt Q03202 1-418, looked up)
chain: MRIMMNKKNIKRNVEKIIAQWDERTRKNKENFDFGELTLSTGLPGIILMLAELKNKDNSKIYQKKIDNYIEYIVSKLSTYGLLTGSLYSGAAGIALSILHLREDDEKYKNLLDSLNRYIEYFVREKIEGFNLENITPPDYDVIEGLSGILSYLLLINDEQYDDLKILIINFLSNLTKENNGLISLYIKSENQMSQSESEMYPLGCLNMGLAHGLAGVGCILAYAHIKGYSNEASLSALQKIIFIYEKFELERKKQFLWKDGLVADELKKEKVIREASFIRDAWCYGGPGISLLYLYGGLALDNDYFVDKAEKILESAMQRKLGIDSYMICHGYSGLIEICSLFKRLLNTKKFDSYMEEFNVNSEQILEEYGDESGTGFLEGISGCILVLSKFEYSINFTYWRQALLLFDDFLKGGKRK
notes: Nisin biosynthesis protein NisC (cyclase), Lactococcus lactis; printed as about 48 kDa; source: expressed and purified as described previously (Mavaro 2011; Abts 2013; Reiners 2017)
Take B1: in test [1], the binding result was “binds”.

As to B2, the binding result with NisB, nisin dehydratase is “binds”.
